Molecular target: rabbit IgG

TEM-PA hybrid protein where one repeated domain of the protein A was internalised (from UniProt P62593 24-195; P38507 212-269; P62593 196-286)
amount of immobilised rabbit IgG that can be detected: 10 to 100 ng
